Target: ribosome (40S ribosomal subunit) of RACK1-downregulated HeLa cells
Test: in vitro ribosome interaction assay (iRIA)
Conditions: parent: est. 1.1; read off a plot

Substance: MBP-RACK1, wild type (from UniProt P63244) R36D; K38E
- response: 0.47 Abs450

Reference: PMC6234289
